Test results from patent US12168773B2, “Engineered phosphoenolpyruvate carboxylase enzymes” (The Regents of the University of California, priority 2019, dated 2024).

B1: ZmPPC1 A651V: engineered Zea mays PPC1 with A651V substitution (A655V in SEQ ID NO:15) (protein)
chain: MASTKAPGPGEKHHSIDAQLRQLVPGKVSEDDKLIEYDALLVDRFLNILQDLHGPSLREFVQECYEVSADYEGKGDTTKLGELGAKLTGLAPADAILVASSILHMLNLANLAEEVQIAHRRRNSKLKKGGFADEGSATTESDIEETLKRLVSEVGKSPEEVFEALKNQTVDLVFTAHPTQSARRSLLQKNARIRNCLTQLNAKDITDDDKQELDEALQREIQAAFRTDEIRRAQPTPQDEMRYGMSYIHETVWKGVPKFLRRVDTALKNIGINERLPYNVSLIRFSSWMGGDRDGNPRVTPEVTRDVCLLARMMAANLYIDQIEELMFELSMWRCNDELRVRAEELHSSSGSKVTKYYIEFWKQIPPNEPYRVILGHVRDKLYNTRERARHLLASGVSEISAESSFTSIEEFLEPLELCYKSLCDCGDKAIADGSLLDLLRQVFTFGLSLVKLDIRQESERHTDVIDAITTHLGIGSYREWPEDKRQEWLLSELRGKRPLLPPDLPQTDEIADVIGAFHVLAELPPDSFGPYIISMATAPSDVLAVELLQRECGVRQPLPVVPLFERLADLQSAPASVERLFSVDWYMDRIKGKQQVMVGYSDSGKDAGRLSAAWQLYRAQEEMAQVAKRYGVKLTLFHGRGGTVGRGGGPTHLVILSQPPDTINGSIRVTVQGEVIEFCFGEEHLCFQTLQRFTAATLEHGMHPPVSPKPEWRKLMDEMAVVATEEYRSVVVKEARFVEYFRSATPETEYGRMNIGSRPAKRRPGGGITTLRAIPWIFSWTQTRFHLPVWLGVGAAFKFAIDKDVRNFQVLKEMYNEWPFFRVTLDLLEMVFAKGDPGIAGLYDELLVAEELKPFGKQLRDKYVETQQLLLQIAGHKDILEGDPFLKQGLVLRNPYITTLNVFQAYTLKRIRDPNFKVTPQPPLSKEFADENKPAGLVKLNPASEYPPGLEDTLILTMKGIAAGMQNTG
B2: AtPPC1 R886G: engineered Arabidopsis thaliana PPC1 enzyme with R886G substitution (protein, UniProt Q9MAH0 1-967, looked up, variant R886G)
Phosphoenolpyruvate …: MANRKLEKMASIDVHLRQLVPGKVSEDDKLVEYDALLLDRFLDILQDLHGEDLRETVQELYEHSAEYEGKHEPKKLEELGSVLTSLDPGDSIVIAKAFSHMLNLANLAEEVQIAYRRRIKKLKKGDFVDESSATTESDLEETFKKLVGDLNKSPEEIFDALKNQTVDLVLTAHPTQSVRRSLLQKHGRIRDCLAQLYAKDITPDDKQELDEALQREIQAAFRTDEIKRTPPTPQDEMRAGMSYFHETIWKGVPKFLRRVDTALKNIGIEERVPYNAPLIQFSSWMGGDRDGNPRVTPEVTRDVCLLARMMAATMYFNQIEDLMFEMSMWRCNDELRARADEVHANSRKDAAKHYIEFWKSIPTTEPYRVILGDVRDKLYHTRERAHQLLSNGHSDVPVEATFINLEQFLEPLELCYRSLCSCGDRPIADGSLLDFLRQVSTFGLSLVRLDIRQESDRHTDVLDAITTHLDIGSYREWSEERRQEWLLSELSGKRPLFGSDLPKTEEIADVLDTFHVIAELPADSFGAYIISMATAPSDVLAVELLQRECRVKQPLRVVPLFEKLADLEAAPAAVARLFSVDWYKNRINGKQEVMIGYSDSGKDAGRLSAAWQLYKAQEELVKVAKEYGVKLTMFHGRGGTVGRGGGPTHLAILSQPPDTINGSLRVTVQGEVIEQSFGEEHLCFRTLQRFTAATLEHGMRPPISPKPEWRALLDEMAVVATEEYRSVVFQEPRFVEYFRLATPELEYGRMNIGSRPSKRKPSGGIESLRAIPWIFAWTQTRFHLPVWLGFGSAIRHVIEKDVRNLHMLQDMYQHWPFFRVTIDLIEMVFAKGDPGIAALYDKLLVSEELWPFGEKLRANFEETKKLILQTAGHKDLLEGDPYLKQGLRLRDSYITTLNVCQAYTLKRIRDPSYHVTLRPHISKEIAESSKPAKELIELNPTSEYAPGLEDTLILTMKGIAAGLQNTG

How the values were obtained:
[1] = target: T1, Zea mays PPC1 (ZmPPC1, C4 PEPC) (Zea mays, UniProt P04711, A655V); assay: malate dehydrogenase coupled PEPC enzymatic assay, maize C4 PPC1 and engineered variants; assay type: biochemical; details: Kcat/Km
T1 construct: 6xHis (N); made in house; host or cells: E. coli BL21 CodonPlus (pET22b)
T1 sequence (P04711 whole entry A655V): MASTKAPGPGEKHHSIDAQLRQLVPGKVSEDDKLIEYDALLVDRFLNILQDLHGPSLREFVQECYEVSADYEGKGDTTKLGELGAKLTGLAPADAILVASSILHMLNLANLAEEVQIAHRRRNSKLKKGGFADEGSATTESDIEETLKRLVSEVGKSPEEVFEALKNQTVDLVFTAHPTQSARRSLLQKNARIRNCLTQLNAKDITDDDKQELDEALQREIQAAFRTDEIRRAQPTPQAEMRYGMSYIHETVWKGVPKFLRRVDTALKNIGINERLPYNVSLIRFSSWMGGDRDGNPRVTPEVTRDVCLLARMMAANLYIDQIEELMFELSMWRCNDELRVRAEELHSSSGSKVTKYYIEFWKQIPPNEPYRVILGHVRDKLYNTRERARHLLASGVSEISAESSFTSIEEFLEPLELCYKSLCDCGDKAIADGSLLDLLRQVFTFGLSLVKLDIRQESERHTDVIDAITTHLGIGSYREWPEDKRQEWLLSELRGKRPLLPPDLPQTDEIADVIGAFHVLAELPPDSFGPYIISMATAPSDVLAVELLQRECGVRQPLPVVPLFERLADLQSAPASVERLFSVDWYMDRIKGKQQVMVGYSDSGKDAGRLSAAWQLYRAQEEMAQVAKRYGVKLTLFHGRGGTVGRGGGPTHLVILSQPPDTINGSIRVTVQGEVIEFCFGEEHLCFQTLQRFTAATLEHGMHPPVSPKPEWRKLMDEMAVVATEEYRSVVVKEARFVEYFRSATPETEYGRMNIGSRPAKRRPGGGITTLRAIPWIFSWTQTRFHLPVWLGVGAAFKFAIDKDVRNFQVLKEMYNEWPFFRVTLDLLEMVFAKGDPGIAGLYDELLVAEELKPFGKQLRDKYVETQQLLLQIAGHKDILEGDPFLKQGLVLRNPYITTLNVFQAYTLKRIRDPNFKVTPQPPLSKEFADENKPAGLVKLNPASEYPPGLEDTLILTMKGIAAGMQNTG
From the text: (§1) For both Arabidopsis C3 PPC1 (AtPPC1) and maize C4 PPC1 (ZmPPC1), the entire coding sequence for each was cloned into pET22b, which contains an amino-terminal 6×-HIS tag for protein purification, and expression was driven by the T7 promoter and lac operon. Relevant mutations were introduced by the Stratagene QuikChange mutagenesis kit using PCR amplification. Both wild type and mutant cDNA constructs were sequenced entirely following cloning into pet22b. Proteins were produced by growing transformed E. coli (BL21 CodonPlus) in autoinduction medium at 18° C. for 16 hours. Proteins were isolated by sonication of bacterial cells followed by passage over a nickel sepharose affinity column, elution with imidazole and separation on a GE SUPERDEX HILOAD 200 PG 16/60 all using an AKTA FPLC.
(§2) Enzyme analysis was conducted in vitro using protein that was generated by expression in E. coli using the pET22b vector. For expression, pET22b constructs were transformed into E. coli BL21-DE3 codon plus RIL cells and grown at 37° C. in autoinduction media until reaching an OD=1 after which these were transferred to 18° C. for 18 hours. Samples were collected and lysed by sonication. Protein was purified by passage through a His-trap nickel affinity column on an Akta FPLC and then eluted with 400 mM imidazole. Partially purified protein was then separated on an FPLC equipped with a HiPrep S200 size exclusion column (16/60) after which collected sample was concentrated by centrifugation to a final concentration of 4 mg/ml in 50% glycerol. Samples were stored at −20° C.
(§3) For enzymatic assays, a malate dehydrogenase coupled reaction was conducted with a range of substrate concentrations (0-7.5 mM phosphoenolpyruvate pyruvate) and a range of concentrations of allosteric inhibitor (0-50 mM malate). Assays were monitored using a Victor2 microplate reader at 25° C. Reactions consisted of […] PPC enzyme variants, 50 mM HEPES pH7.5, 10 mM MgCl2, 10 mM KHCO3 (carbonate substrate), 0.2 mM NADH, and 10 units/ml of malate dehydrogenase. Reaction time was 15 minutes and samples were measured on an ˜40 second interval. For measurement, which monitors loss of NADH, excitation wavelength was 340 nM and emission wavelength was 460 nM.

[2] = system: Zea mays PPC1 (ZmPPC1, C4 PEPC); assay: as above; assay type: biochemical
From the text: as §1, §2, §3

[3] = system: Arabidopsis thaliana PPC1 (AtPPC1, C3 PEPC); assay: malate dehydrogenase coupled PEPC enzymatic assay, Arabidopsis C3 PPC1 and engineered variants; assay type: biochemical; details: 25° C, HEPES pH7.5
From the text: as §1, §2
as §3, with “nM. From these assays, the enzyme kinetics of Tables 4-1 and 4-2 were determined for each enzyme variant.” for “nM.”

[4] = system: transgenic Arabidopsis seedlings; assay: root growth analysis of transgenic Arabidopsis in the presence of aluminum; assay type: in vivo, Arabidopsis thaliana; details: day 7, 20° C, soaked gel, aluminum toxicity equivalent to about 50-100 μM; versus plants expressing wt AtPPC1
Method: Root growth was examined in transgenic Arabidopsis engineered to express wt AtPPC1, or a variant PEPC (G678S AtPPC1 or R886G AtPPC1) in a genotypic background devoid of expression of native AtPPC1. Seedlings from the transgenic Arabidopsis strains were grown at 20° C. in a soaked gel environment with aluminum toxicity equivalent to about 50-100 μM in the absence of agar. Root growth was assessed at day 7. […] This is consistent with the improved enzyme kinetics of the G678S AtPPC1 or R886G AtPPC1 enzymes described in Example 5.

| Molecule | increase in catalytic efficiency relative to wt ZmPPC1 [1] [fold] | effects of the allosteric inhibitor malate relative to wt ZmPPC1 [2] | Km ([2]; 0-7.5 mM phosphoenolpyruvate, 25° C, HEPES pH7.5, read-out: Km PEP) [µM] | Vmax ([2]; 25° C, HEPES pH7.5) [units/mg] | effect of malate on enzyme ([2]; at 50 mM malate) | activity of C4 PEPC ([2]; substitution introduced into maize C4 PEPC (ZmPPC1)) | Km ([3]; 0-7.5 mM phosphoenolpyruvate, read-out: Km PEP) [µM] | Vmax [3] [units/mg] | root growth in the presence of aluminum [4] |
| --- | --- | --- | --- | --- | --- | --- | --- | --- | --- |
| B1 | > 7 | greatly reduce | 477 ± 42 | 12.84 ± 0.89 | wholly unaffected | increased activity | – | – | – |
| B2 | – | – | – | – | – | – | 1110 ± 36 | 12.586 ± 0.14 | large increase |
